# “Also recorded” adds a separate entry of the source.
# Tests used:
# NIH3T3 cells = assay: Intracellular delivery and localization of FITC-labeled SOCS3 recombinant proteins (confocal microscopy); assay type: cell-based, mouse; conditions: 10 μM FITC-labeled SOCS3 protein, 1 hour, 37° C.
# Experimental: To examine cell-permeability of SOCS3 recombinant protein, SOCS3 recombinant proteins were conjugated to 5/6-fluorescein isothiocyanate (FITC). RAW 264.7 (KCLB, Seoul, South Korea) (FIG. 20) or NIH3T3 cells (KCLB, Seoul, South Korea) (FIG. 21) were treated with 10 μM FITC-labeled SOCS3 recombinant proteins and cultivated for 1 hr at 37° C.
# After cultivation, the cells were washed three times with ice-cold PBS (Phosphate-buffered saline, Hyclone, USA) and treated with proteinase K (10 μg/mL, SIGMA, USA) to remove surface-bound proteins, and internalized proteins were measured by flow cytometry (FlowJo cytometric analysis software, Guava, Millipore, Darmstadt, Germany). Untreated cells (gray) and equimolar concentration of unconjugated FITC (FITC only, green)-treated cells were served as control (FIG. 20). Each of NIH3T3 cells was incubated for 1 hour at 37° C. with 10 μM FITC-labeled SOCS3 protein. For nuclear staining, a mixture of […] Mounting Medium (Vector laboratories, Burlingame, Calif.) and DAPI (4′,6-diamidino-2-phenylindole) was added to NIH3T3 cells, and visualized using a confocal laser microscope (LSM700, Zeiss, Germany) (FIG. 21).
# [1] = tested on: HCCs (Hep3B, HepG2, Huh7 and SK-HEP-1); assay: Inhibition of cell cycle progression (PI staining, flow cytometry); assay type: cell-based, human; conditions: 10 uM, 8 hrs
# Experimental: To further determine the effect of iCP-SOCS3 on the tumorigenicity of hepatocellular carcinoma cells, we subsequently investigated whether iCP-SOCS3 regulates cell cycle progression in HCCs (Hep3B, HepG2, Huh7 and SK-HEP-1).
# HCCs and normal cells were treated with 10 uM protein (Non-CP-SOCS3 (HS3B) and iCP-SOSC3 (HM165S3B)) for 8 hrs. After the treatment, cells were washed twice with cold PBS and re-suspended in 1 ml cold PBS, fixed in cold 70% ethanol, washed with cold PBS twice and re-suspended in PI master mix (PI 10 ug/ml (SIGMA, USA), 50 ug/ml RNase A (Invitrogen, USA) in staining buffer) at a final cell density of 2×10^5 cell/ml. The cell mixtures were incubated 30 min in the dark at 4° C. Flow cytometric analysis was immediately performed using a guava easyCyte™ 8 Instrument (Merck Millipore, Darmstadt, Germany).
# RAW 264.7 cells = assay: Mechanism of aMTD-mediated uptake (EDTA, proteinase K, taxol, antimycin, temperature; flow cytometry); assay type: cell-based; conditions: for protein uptake after proteinase K pretreatment: 5 ug/ml proteinase K 10 minutes; for protein uptake after taxol pretreatment: 20 uM taxol 30 minutes
# Experimental: The mechanism of basic CPP (TAT and PolyR)-mediated intracellular delivery was also investigated in the same manner as in Example 7-1 and Example 14-2.
# (1) RAW 264.7 cells were pretreated with 100 mM EDTA for 3 hours, and then treated with 10 uM of iCP-SOCS3 (HM165S3B) protein for 1 hour, followed by flow cytometry in the same manner as in Example 7-1 (FIG. 51A).
# (2) RAW 264.7 cells were pretreated with 5 ug/ml of proteinase K for 10 minutes, and then treated with 10 uM of iCP-SOCS3 (HM165S3B) protein for 1 hour, followed by flow cytometry (FIG. 51B).
# (3) RAW 264.7 cells were pretreated with 20 uM taxol for 30 minutes, and then treated with 10 uM of iCP-SOCS3 (HM165S3B) protein for 1 hour, followed by flow cytometry (FIG. 52A).
# (4) RAW 264.7 cells were pretreated with 1 mM ATP and 10 uM antimycin singly or in combination for 2 hours, and then treated with 10 uM of iCP-SOCS3 (HM165S3B) protein for 1 hour, followed by flow cytometry (FIG. 52B).
# (5) RAW 264.7 cells were left at 4° C. and 37° C. for 1 hour, respectively, and then treated with 10 uM of iCP-SOCS3 (HM165S3B) protein for 1 hour, followed by flow cytometry (FIG. 53).
# SK-Hep-1 cells = assay: Transwell migration assay; assay type: cell-based, human; conditions: 24 hrs, compared with vehicle and non-permeable SOCS3
# Experimental: (§1) The lower surface of Transwell inserts (Costar) was coated with 0.1% gelatin, and the membranes were allowed to dry for 1 hr at room temperature. The Transwell inserts were assembled into a 24-well plate, and the lower chamber was filled with growth media containing 10% FBS and FGF2 (40 ng/ml). Cells were added to each upper chamber at a density of 5×10^5, and the plate was incubated at 37° C. in a 5% CO2 incubator for 24 hrs. Migrated cells were stained with 0.6% hematoxylin and 0.5% eosin and counted.
# HepG2 cells = assay: Transwell migration assay; assay type: cell-based, human; conditions: 24 hrs, compared with vehicle and non-permeable SOCS3
# Experimental: as §1
# Huh-7 cells = assay: Transwell migration assay; assay type: cell-based, human; conditions: 24 hrs, compared with vehicle and non-permeable SOCS3
# Experimental: as §1
# AGS cells = assay: Antiproliferative activity, CellTiter-Glo Cell Viability Assay; assay type: cell-based; conditions: 10 μM, 96 hrs, 2% serum
# Experimental: Antiproliferative activity were evaluated with the CellTiter-Glo Cell Viability Assay. AGS cells (3×10^3/well) were seeded in 96 well plates. The next day, cells were treated with DMEM (vehicle) or 10 μM HM165S3B, HM15S3B′(V28L) for 96 hrs in the presence of serum (2%). Proteins were replaced daily. Cell growth and survival were evaluated with the CellTiter-Glo Cell Viability Assay (Promega, Madison, Wis.). Measurements using a Luminometer (Turner Designs, Sunnyvale, Calif.) were conducted following the manufacturer's protocol.
# [2] = then 10 uM protein 1 hour, listed as aMTD165/SD-fused SOCS3 recombinant proteins
molecule,measurement,setting,value
"HM165S3B: His-tagged recombinant protein of aMTD165, human SOCS3 and solubilization domain B; prototype improved cell-permeable SOCS3 (protein, Amino acid sequence of HM165S3B) MGSSHHHHHHSSGLVPRGSHMALAVPVALAIVPVTHSKFPAAGMETSRPLDTSLRLKTFSSKSEYQLVVNAVRKLQESGFYWSAVTGGEANLLLSAEPAGTFLIRDSSDQRHFFTLSVKTQSGTKNLRIQCEGGSFSLQSDPRSTQPVPRFDCVLKLVHHYMETPPPGAPSFPSPPTEPSSEVPEQPSAQPLPGSPPRRAYYIYSGGEKIPLVLSRPLSSNVATLQHLCRKTVNGHLDSYEKVTQLPGPIREFLDQYDAPLGSMAEQSDKDVKYYTLEEIQKHKDSKSTWVILHHKVYDLTKFLEEHPGGEEVLGEQAGGDATENFEDVGHSTDARELSKTYIIGELHPDDRSKIAKPSETL",intracellular delivery and localization,NIH3T3 cells,localized to various extents in cytoplasm; also recorded: displayed more uniform cellular distribution
same,cell cycle progression in HCCs,[1],efficiently inhibited cell cycle progression
same,protein uptake after proteinase K pretreatment,RAW 264.7 cells; then 10 uM protein 1 hour,essentially unaffected
same,protein uptake after proteinase K pretreatment,RAW 264.7 cells; [2],independent to cell surface receptor
same,protein uptake after taxol pretreatment,RAW 264.7 cells; then 10 uM protein 1 hour,essentially unaffected
same,protein uptake after taxol pretreatment,RAW 264.7 cells; [2],not due to endocytosis
same,protein uptake after antimycin (ATP depletion),"RAW 264.7 cells; 1 mM ATP and 10 uM antimycin 2 hours, then 10 uM protein 1 hour",essentially unaffected
same,protein uptake after EDTA pretreatment,"RAW 264.7 cells; 100 mM EDTA 3 hours, then 10 uM protein 1 hour",blocked
same,protein uptake at low temperature,"RAW 264.7 cells; 4° C. vs 37° C., 10 uM protein 1 hour",blocked
same,"Transwell migration, SK-Hep-1",SK-Hep-1 cells,significant inhibitory effect on their Transwell migration
same,"Transwell migration, HepG2",HepG2 cells,significant inhibitory effect on their Transwell migration
same,"Transwell migration, Huh-7",Huh-7 cells,significant inhibitory effect on their Transwell migration
same,anti-proliferative activity,AGS cells,high anti-proliferative effects on gastric carcinoma cells

# Source: patent US10385103B2, “Cell-permeable (ICP)-SOCS3 recombinant protein and uses thereof” (CELLIVERY THERAPEUTICS, INC., priority 2014, dated 2019)
